In patent US9061070B2, “Treating stroke and other diseases without inhibiting N-type calcium channels” (NoNO, Inc., priority 2007, dated 2015):
Where two headings read alike, the source gives them in different places. Where no end group is shown, it is not given here. [ ]: non-standard residue; d: D form. Tle = CC(C)(C)[C@H](N)C(=O)O; Nva = CCC[C@H](N)C(=O)O

How the values were obtained:
[1] = target: N-type calcium channels (Mus musculus, UniProt O55017); assay: Whole-cell patch clamp recordings of calcium currents in dorsal root ganglion neurons; assay type: cell-based, Swiss mice
[2] = system: pial 3 vessel occlusion (P3VO) model of stroke; assay: Pial vessel occlusion (P3VO) model of permanent ischemia; assay type: in vivo, Sprague Dawley rats; settings: for reduction of infarct size: single dose 3 nmol/g one hour after initiating ischemia, FIG. 3
[3] = cited from earlier work
[4] = target: N-type Ca channels (Homo sapiens, UniProt Q00975); assay type: binding; settings: 10 μM peptide
[5] = system: MCAO model of stroke; settings: previously tested; cited from earlier work
[6] = peptide at 100 μM, mean+/-s.e.m., DRG neurons
[7] = 3 nMol/g i.v. one hour after occlusion, 24 h, FIG. 8

N-type calcium channels, sequence (O55017 whole entry): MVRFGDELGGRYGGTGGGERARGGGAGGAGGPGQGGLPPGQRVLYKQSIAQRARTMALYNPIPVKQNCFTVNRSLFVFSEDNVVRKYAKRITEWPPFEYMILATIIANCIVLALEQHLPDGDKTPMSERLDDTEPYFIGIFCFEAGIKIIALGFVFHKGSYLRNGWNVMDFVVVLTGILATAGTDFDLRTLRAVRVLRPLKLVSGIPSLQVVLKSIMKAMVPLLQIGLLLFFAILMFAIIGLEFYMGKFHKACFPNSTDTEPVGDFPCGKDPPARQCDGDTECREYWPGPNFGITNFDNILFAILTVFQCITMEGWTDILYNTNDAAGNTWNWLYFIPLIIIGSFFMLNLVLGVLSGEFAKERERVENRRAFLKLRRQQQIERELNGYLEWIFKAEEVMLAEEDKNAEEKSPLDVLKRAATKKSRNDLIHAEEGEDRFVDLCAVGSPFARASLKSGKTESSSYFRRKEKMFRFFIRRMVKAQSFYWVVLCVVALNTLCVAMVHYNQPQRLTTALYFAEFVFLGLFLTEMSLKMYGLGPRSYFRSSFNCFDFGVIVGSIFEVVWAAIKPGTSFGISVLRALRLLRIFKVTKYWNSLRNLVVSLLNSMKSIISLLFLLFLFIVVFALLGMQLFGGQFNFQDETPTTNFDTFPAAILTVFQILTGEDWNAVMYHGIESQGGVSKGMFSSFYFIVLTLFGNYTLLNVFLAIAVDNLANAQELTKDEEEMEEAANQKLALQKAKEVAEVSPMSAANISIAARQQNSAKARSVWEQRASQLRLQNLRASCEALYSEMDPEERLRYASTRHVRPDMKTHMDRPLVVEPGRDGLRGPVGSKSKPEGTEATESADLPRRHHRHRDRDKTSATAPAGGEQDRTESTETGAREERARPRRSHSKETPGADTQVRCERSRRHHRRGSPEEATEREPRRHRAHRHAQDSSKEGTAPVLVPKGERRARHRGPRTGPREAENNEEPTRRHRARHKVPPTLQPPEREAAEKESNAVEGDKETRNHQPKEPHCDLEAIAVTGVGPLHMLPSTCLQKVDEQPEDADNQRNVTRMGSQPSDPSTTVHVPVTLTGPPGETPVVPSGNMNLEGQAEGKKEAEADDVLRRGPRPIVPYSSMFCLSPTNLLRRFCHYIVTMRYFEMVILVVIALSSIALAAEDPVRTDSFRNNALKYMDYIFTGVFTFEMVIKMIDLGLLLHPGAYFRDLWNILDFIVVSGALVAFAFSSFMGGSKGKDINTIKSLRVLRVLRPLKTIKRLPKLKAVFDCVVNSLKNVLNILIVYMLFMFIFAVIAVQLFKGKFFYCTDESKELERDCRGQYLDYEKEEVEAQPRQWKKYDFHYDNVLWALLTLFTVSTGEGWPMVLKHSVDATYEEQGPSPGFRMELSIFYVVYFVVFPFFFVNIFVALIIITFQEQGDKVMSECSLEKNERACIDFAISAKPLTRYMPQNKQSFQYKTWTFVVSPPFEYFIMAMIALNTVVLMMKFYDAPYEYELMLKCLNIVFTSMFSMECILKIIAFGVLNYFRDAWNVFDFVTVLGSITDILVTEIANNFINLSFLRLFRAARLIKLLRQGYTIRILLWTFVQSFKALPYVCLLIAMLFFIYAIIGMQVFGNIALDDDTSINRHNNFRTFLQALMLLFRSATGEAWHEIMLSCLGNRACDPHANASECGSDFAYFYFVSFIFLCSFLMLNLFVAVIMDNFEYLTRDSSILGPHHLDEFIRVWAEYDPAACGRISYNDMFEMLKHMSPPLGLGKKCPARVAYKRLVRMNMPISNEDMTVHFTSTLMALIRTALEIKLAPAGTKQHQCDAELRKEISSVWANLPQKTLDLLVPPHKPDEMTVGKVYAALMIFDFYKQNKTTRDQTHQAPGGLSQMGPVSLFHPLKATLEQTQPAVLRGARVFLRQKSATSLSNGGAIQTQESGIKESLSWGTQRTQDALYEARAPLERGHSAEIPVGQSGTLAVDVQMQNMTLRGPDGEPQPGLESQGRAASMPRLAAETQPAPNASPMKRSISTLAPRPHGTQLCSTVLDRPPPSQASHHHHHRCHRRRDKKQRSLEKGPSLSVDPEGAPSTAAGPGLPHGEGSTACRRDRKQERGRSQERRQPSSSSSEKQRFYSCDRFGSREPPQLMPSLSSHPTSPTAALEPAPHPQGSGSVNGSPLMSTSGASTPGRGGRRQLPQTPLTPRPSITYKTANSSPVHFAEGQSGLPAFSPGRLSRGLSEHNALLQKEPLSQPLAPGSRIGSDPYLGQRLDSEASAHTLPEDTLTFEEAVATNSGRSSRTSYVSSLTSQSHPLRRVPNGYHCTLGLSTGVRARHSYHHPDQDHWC
N-type calcium channels, sequence (O08532 25-956 partner limits assumed): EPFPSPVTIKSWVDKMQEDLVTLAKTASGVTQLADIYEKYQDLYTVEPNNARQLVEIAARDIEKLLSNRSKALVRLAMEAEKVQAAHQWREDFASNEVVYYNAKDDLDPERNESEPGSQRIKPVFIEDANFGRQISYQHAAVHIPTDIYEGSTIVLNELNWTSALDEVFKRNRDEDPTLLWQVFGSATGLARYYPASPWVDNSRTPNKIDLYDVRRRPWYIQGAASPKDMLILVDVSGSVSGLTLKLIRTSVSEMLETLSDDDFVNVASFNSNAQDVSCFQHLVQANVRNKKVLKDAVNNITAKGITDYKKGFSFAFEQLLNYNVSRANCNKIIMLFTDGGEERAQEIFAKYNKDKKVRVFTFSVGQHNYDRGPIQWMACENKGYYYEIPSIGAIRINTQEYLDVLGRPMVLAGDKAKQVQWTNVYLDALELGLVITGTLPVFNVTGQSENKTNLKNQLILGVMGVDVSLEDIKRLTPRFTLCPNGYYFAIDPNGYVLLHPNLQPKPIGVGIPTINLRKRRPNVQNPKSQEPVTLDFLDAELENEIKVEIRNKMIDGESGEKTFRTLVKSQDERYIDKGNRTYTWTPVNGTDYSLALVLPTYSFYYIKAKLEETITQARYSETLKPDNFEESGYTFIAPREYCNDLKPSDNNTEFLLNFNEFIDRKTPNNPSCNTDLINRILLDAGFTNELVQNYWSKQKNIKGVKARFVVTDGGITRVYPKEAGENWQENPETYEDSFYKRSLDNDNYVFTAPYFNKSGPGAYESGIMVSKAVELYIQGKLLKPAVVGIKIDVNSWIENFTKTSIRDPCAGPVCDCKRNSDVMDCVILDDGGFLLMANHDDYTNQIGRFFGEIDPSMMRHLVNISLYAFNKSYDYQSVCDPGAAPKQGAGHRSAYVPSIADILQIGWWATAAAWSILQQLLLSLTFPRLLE
N-type calcium channels, sequence (O08532 957-1103 partner limits assumed): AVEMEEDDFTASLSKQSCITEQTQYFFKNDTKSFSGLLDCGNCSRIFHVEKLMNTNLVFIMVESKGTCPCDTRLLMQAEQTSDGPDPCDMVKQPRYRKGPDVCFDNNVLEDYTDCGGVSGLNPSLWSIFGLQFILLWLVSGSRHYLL
N-type calcium channels, sequence (P54285 whole entry partner): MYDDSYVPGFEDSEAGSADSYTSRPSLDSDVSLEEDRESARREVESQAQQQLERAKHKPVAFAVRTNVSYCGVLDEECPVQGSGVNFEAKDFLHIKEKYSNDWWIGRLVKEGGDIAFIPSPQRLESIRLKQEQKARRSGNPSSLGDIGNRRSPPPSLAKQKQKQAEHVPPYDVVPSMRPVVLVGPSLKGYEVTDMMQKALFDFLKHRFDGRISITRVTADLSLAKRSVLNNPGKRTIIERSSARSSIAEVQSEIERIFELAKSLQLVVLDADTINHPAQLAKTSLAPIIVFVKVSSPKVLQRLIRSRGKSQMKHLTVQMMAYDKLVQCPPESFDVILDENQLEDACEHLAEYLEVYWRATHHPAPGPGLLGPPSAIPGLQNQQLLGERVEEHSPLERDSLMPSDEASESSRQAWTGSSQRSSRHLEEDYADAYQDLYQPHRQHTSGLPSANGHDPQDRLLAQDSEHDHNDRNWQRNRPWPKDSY

FGRKKRRQRRRALSSIESDV (also: fluorescent label, place not given here (F-Tat-NR2B9c)) [Peptide 1995]
Ca2+ current shown as a percentage (normalized to current before peptide) [1, 6]: 97+/−0.2%

YGRKKRRQRRRKLSSIEXDV (YGRKKRRQRRRKLSSIE[L‑2‑amino‑3‑ureidopropionic acid]DV) [Peptide 1978]
infarct size (percent of hemisphere) ([2]; rat, in vivo, iv): some reduction in infarct size

YGRKKRRQRRRKLSSIESDX [1977] (YGRKKRRQRRRKLSSIESD[Tle]) [Peptide 1977]
Ca2+ current shown as a percentage (normalized to current before peptide) [1, 6]: 65+/−5.1%

YGRKKRRQRRR [Peptide 1990, reference compound]
Ca2+ current shown as a percentage (normalized to current before peptide) [1]: 57+/−1.6%

YGRKKRRQRRRKLSSIETDX (YGRKKRRQRRRKLSSIETD[Nva]) [Peptide 1975]
infarct size (percent of hemisphere) [2, 7]: some reduction in infarct size

YGRKKRRQRRRALSSIESDV (Synthetic peptide - 1994 Tat-NR2B9c K to A) [Peptide 1994]
inhibition of N-type calcium channel activity (in words) ([1]; FIG. 2, peptide at 100 μM): significant improvement in channel activity over TAT alone although still displayed some reduction | inhibition of N-type calcium channel activity (in words) ([1]; FIG. 2, peptide at 100 μM, listed as 1994 Tat-NR2B9c K to A): no significant inhibition | Ca2+ current shown as a percentage (normalized to current before peptide) [1, 6]: 77+/−1.8%

YGRKKRRQRRRKLSSIESDX [1976] (YGRKKRRQRRRKLSSIESD[Nva]) [Peptide 1976]
Ca2+ current shown as a percentage (normalized to current before peptide) [1, 6]: 66+/−3.4%

N[C@@H](Cc1ccc(O)c(O)c1)C(=O)O [Levodopa]
halflife [3]: halflife = 1.5 hrs

CC[C@H](C)C(=O)O[C@H]1C[C@H](O)C=C2C=C[C@H](C)[C@H](CC[C@@H](O)C[C@@H](O)CC(=O)O)[C@H]21 [Pravachol ® (pravastatin), pravastatin]
bioavailability [3]: efficacy, low

1987: D-isomer of Tat-NR2B9c ([dY]G[dR][dK][dK][dR][dR][dQ][dR][dR][dR][dA][dL][dS][dS][dI][dE][dS][dD][dV]) [Peptide 1987]
Ca2+ current shown as a percentage (normalized to current before peptide) [1]: 82+/−2.2% | inhibition of N-type calcium channel activity (in words) [1]: significant improvement in channel activity over TAT alone although still displayed some reduction

FGRKKRRQRRRKLSSIESDV (also: fluorescent label, place not given here (F-Tat-NR2B9c)) [Peptide 1993]
inhibition of N-type calcium channel activity (in words) ([1]; FIG. 2, peptide at 100 μM): no significant inhibition | Ca2+ current shown as a percentage (normalized to current before peptide) [1, 6]: 91+/−1.6% | reduction of infarct size [2]: equally effective in reducing infarct size

NCCCC[C@H](N[C@@H](CCc1ccccc1)C(=O)O)C(=O)N1CCC[C@H]1C(=O)O [Prinivil ® (lininopril), lininopril]
halflife [3]: crossing, 12 hr

YGRKKRRQRRRKLSSIESDX (YGRKKRRQRRRKLSSIESD[Nva]) [Peptide 1976]
infarct size (percent of hemisphere) [2, 7]: significantly decreased infarct sizes

KLSSIESDV (Synthetic active peptide - 1991 2B9c) [Peptide 1991]
inhibition of N-type calcium channel activity (in words) ([1]; FIG. 2, peptide at 100 μM): no significant inhibition | Ca2+ current shown as a percentage (normalized to current before peptide) [1, 6]: 94+/−1.7%

YGRKKRRQRRRKLSSIEADA (Synthetic peptide - 1992 Tat-NR2B9c-AA) [Peptide 1992]
inhibition of N-type calcium channel activity (in words) ([1]; FIG. 2, peptide at 100 μM): significant improvement in channel activity over TAT alone although still displayed some reduction | Ca2+ current shown as a percentage (normalized to current before peptide) [1, 6]: 74+/−2.4%

YGRKKRRQRRRKLSSIESDV [Tat-NR2B9c, reference compound]
inhibition of radiolabeled ω-Conotoxin GVIA binding to N-type Ca channels [4]: 100% | frequency (use) dependence of block of Ca2+ currents ([1]; 100 μM, 0.07, 10, 20, 50 Hz, FIG. 6): not frequency dependent | Ca2+ current shown as a percentage (normalized to current before peptide) [1, 6]: 68+/−1.7% | voltage dependence of inhibition of Ca2+ current ([1]; steps from −40 to +50 mV, FIG. 7): independent of voltage | neuroprotection, infarct size [5]: neuroprotective as seen by a reduced infarct size | infarct size (percent of hemisphere) [2, 7]: significantly decreased infarct sizes | reduction of infarct size [2]: equally effective in reducing infarct size
